Laboratory results published in US20160108381A1, “DNA POLYMERASES AND MUTANTS THEREOF” (LIFE TECHNOLOGIES CORPORATION, priority 2001, published 2016).
Marks after values point to notes of the source that are not given here.

What was measured:
Assay in all cases: Steady-state kinetics, DNA- and RNA-dependent polymerase activity
[1] = substrate: Cc1cn([C@H]2C[C@H](O)[C@@H](COP(=O)(O)OP(=O)(O)OP(=O)(O)O)O2)c(=O)[nH]c1=O; type: biochemical, Caldibacillus cellulovorans CompA.2; conditions: 55 °C, mean ± SD
Protocol: (§1) Purification of CA2, B.EA1, Rt41A, Dth, Tok13B, Tok7B, and Rt69B DNA polymerase. E. coli cells (BL21SI, Invitrogen Corporation, Carlsbad, Calif.) bearing the plasmid pET26B with the gene for CA2, B.EA1, Rt41A, or Dth DNA polymerase were grown in 2.8-1 Fembach flasks in LB broth containing no salt and 50 μg/ml kanamycin at 37° C. After the culture reached an A590 of 1.2, expression of DNA polymerase was induced with 0.3 M NaCl for 3 hr. Cells were harvested by centrifugation and stored at −70° C. E. coli cells (BL21AI) bearing the plasmid pET14B with the gene for Tok13B, Tok7B, or RT69B DNA polymerase were grown in 2.8-1 Fembach flasks in LB broth containing 50 μg/ml ampicillin at 37° C. After the culture reached an A590 of 1.0, expression of DNA polymerase was induced by the addition of 0.2% arabinose for 3 hr. Cells were harvested by centrifugation and stored at −70° C.
(§2) Steady-state kinetic measurements.
(§3) The catalytic rate constant kcat and the Michaelis constant KM were determined for both the DNA-dependent and RNA-dependent polymerase activities for the polypeptides of the invention and these parameters were compared to those of Tne DNA polymerase enzyme and […]™ II reverse transcriptase. […]

[2] = substrate: Nc1nc2c(ncn2[C@H]2C[C@H](O)[C@@H](COP(=O)(O)OP(=O)(O)OP(=O)(O)O)O2)c(=O)[nH]1; type: biochemical, Caldibacillus cellulovorans CompA.2; conditions: other: Table 34, DNA template, 1.5 mM MgCl2, 55 °C per footnote *
Protocol: as §1, §2, §3

[3] = substrate: Cc1cn([C@H]2C[C@H](O)[C@@H](COP(=O)(O)OP(=O)(O)OP(=O)(O)O)O2)c(=O)[nH]c1=O; type: biochemical, Dictyoglomus thermophilum strain Rt46B.1; conditions: 72 °C
Protocol: as §1, §2

[4] = substrate: Cc1cn([C@H]2C[C@H](O)[C@@H](COP(=O)(O)OP(=O)(O)OP(=O)(O)O)O2)c(=O)[nH]c1=O; type: biochemical, Bacillus caldolyticus EA1.3; conditions: 55 °C, mean ± SD
Protocol: as §1, §2

[5] = other: Table 40, (dA)270•(dT)40, dTTP
[6] = other: Table 40, (rA)250•(dT)30, dTTP

B1: Caldibacillus cellulovorans CompA.2 (CA2) DNA polymerase, SEQ ID NO:16 ([Caldibacillus] cellulovorans) (protein)
chain: MKYLLPTAAAGLLLLAAQPAMAMGKLILVDGNSVANRAFYAVRLLSTRGGLHTNAVYGFANMLLKLIEEERPTHFLVAFDAGKATFRHREYEAYKAGRLQTPPELSEQFPYIRELVRAFGVASGELEEYEADDMIGTLAKRAEAEGVDTLVVTGDRDLLQLVSDRVTVALTRKGITETERYDPARIREEYGFDPDRIRDLKGLMGDASDNLPGVPGVGEKTALKLLRQYGSLESVLEHASEIAGKLGENLRAHADAARLSKRLATIDCAVPLQSGWDWLRLGEPDRAALASLLRQLEFKSLLKRLGLDGTSADADVDGVRSSARPADEKRPRAVAVAEEGVDVRCPDRPEEVEEALSRLEAAQSVVVEVTGDNPHDGEVRGVAWWDGHTAYFIPFERLVQSDMRPLADWLADARRPKRTHDSHRAEVALFWHGLAFRGTSFCTHIAAYLLDPTESRHTLADLSRRYGLPPVPEAEDVYGKGAKFKVPDRDTLARYVGRKAALVARLVPLLEADLAACGMRSLFYDLELPLSSELAVMETVGVRVDAAALAAYGEELREAAAKVEREIYELAGTTFNIGSTKQLGEILFDKLGLPVVKKTKTGYSTDADVLEELAPYHPIVEKILHYRQLTKLQSTYIEGLLKEIRPQTGKIHTYYQQTIAATGRLSSQFPNLQNIPIRLEEGRKIRKAFVPSEPGWLMLAADYSQIELRVLAHVSGDERLKEAFRTGMDIHTKTAMDVFGVSEDRVDARMRRQAKAVNFGIIYGISDFGLAQNLNISRKEAAEFIRQYFAVFSGVKAYRERIVEQARRDGYVTTLLGRRRYLPDINASNYNLRSFAERTAMNTPIQGTAADIIKTAMVRLTRRMRDVGLKSRMLLQVHDELVFEVPPDELDAMRELVTDVMESAVPLDVPLKVDVSWGADWYAAK
B1 was tested, and the kcat [1, 5] was 82 ± 9 s⁻¹, the kcat [1, 6] was 48 ± 9 s⁻¹ and the kcat [2] was 200* s−1.

B2: Dictyoglomus thermophilum strain Rt46B.1 (Dth) DNA polymerase, SEQ ID NO:22 (Dictyoglomus thermophilum) (protein)
chain: MKYLLPTAAAGLLLLAAQPAMAMDIGINSDPKSLWDLFQENTEKESKRKILIIDGSSLIYRVYYALPPLKTKNGELTNALYGFIRILLKAVEDFNPDLVGVAFDRPEPTFRHVIYKEYKAKRPPMKDDLKAQIPWIREFLRLNDIPLLEEPGYEADDIIATIVNKYKDDLKYILSGDLDLLQLVSDKTFLIHPQKGITEFTIYDPKAVKDRFGVEPYKIPLYKVLVGDESDNIPGVNGIGPKKASKILEKISSVDEFKSKIKVLDSDLRELIEKNWNIIERNLELVTLKNIDKDLILKPFEIKRDEKVIDFLKRYELKSILQKLFPDLQEEENIEIKDVEEINFNEVEKEGYFAFKCLGDRAFEGISLSFKEGEGYFISPFDFNNEIRKKIENIISSENVKKIGSYIQRDLHFLNCKIKGDVFDVSLASYLLNPERQNHSLDILIGEYLNKTSFIPQKYAGYLFPLKSILEERIKNEGLEFVLYNIEIPLIPVLYSMEKWGIKVDKEYLKQLSDEFCERIKKLEEEIYELAGTRFNLNSPKQLSEVLFERLKLPSGKKGKTGYSTSSSVLQNLINAHPIVRKILQYRELYKLKSTYVDAIPNLVNPQTGRVHTKFNPTGTATGRISSSEPNLQNIPIKSEEGRKIRRAFVSEDGYFLVSLDYSQIELRIMAHLSQEPKLISAFQKGEDIHRRTASEIFGVPEEEVDDLLRSRAKAVNFGIIYGISSFGLSETVSITPEEAEKFIDSYFKHYPRVKLFIDKTIHEAREKLYVKTLFGRKRYIPEIKSINKQVRNAYERIAINAPIQGTAADIIKLAMIEIYKEIENKNLKSRILLQIHDELILEVPEEEMEFTPLMAKEKMEKVVELSVPLVVEISVGKNLAELK
B2 was tested, and the kcat ([3]; other: Table 40, (dA)270•(dT)40, dTTP, mean ± SD) was 39 ± 15 s⁻¹ and the kcat ([3]; other: Table 40, (rA)250•(dT)40, dTTP) was less than 1 s⁻¹.

B3: Bacillus caldolyticus EA1.3 (B.EA1) DNA polymerase, SEQ ID NO:20 ([Bacillus] caldolyticus) (protein)
chain: MKYLLPTAAAGLLLLAAQPAMAMGLKKKLVLIDGSSVAYRAFFALPLLHNDKGIHTNAVYGFTMMLNKILAEEEPTHMLVAFDAGKTTFRHEAFQEYKGGRQQTPPELSEQFPLLRELLRAYRIPAYELENYEADDIIGTLAARAEQEGFEVKVISGDRDLTQLASPHVTVDITKKGITDIEPYTPEAVREKYGLTPEQIVDLKGLMGDKSDNIPGVPGIGEKTAVKLLKQFGTVENVLASIDEIKGEKLKETLRQHREMALLSKKLAAIRRDAPVELSLDDIVYQGEDREKVVALFKELGFQSFLEKMESPSSEEEKPLAKMAFTLADRVTEEMLADKAALVVEVVEENYHDAPIVGIAVVNEHGRFFLRPETALADPQFVAWLGDETKKKSMFDSKRAAVALKWKGIELCGVSFDLLLAAYLLDPAQGVDDVAAAAKMKQYEAVRSDEAVYGKGAKRAVPDEPVLAEHLVRKAAAIWALERPFLDELRRNEQDRLLVELEQPLSSILAEMEFAGVKVDTKRLEQMGEELAEQLRTVEQRIYELAGQEFNINSPKQLGVILFEKLQLPVLKKTKTGYSTSADVLEKLAPYHEIVENILHYRQLGKLQSTYIEGLLKVVRPDTKKVHTIFNQALTQTGRLSSTEPNLQNIPIRLEEGRKIRQAFVPSESDWLIFAADYSQIELRVLAHIAEDDNLMEAFRRDLDIHTKTAMDIFQVSEDEVTPNMRRQAKAVNFGIVYGISDYGLAQNLNISRKEAAEFIERYFESFPGVKRYMENIVQEAKQKGYVTTLLHRRRYLPDITSRNFNVRSFAERMAMNTPIQGSAADIIKKAMIDLNARLKEERLQARLLLQVHDELILEAPKEEMERLCRLVPEVMEQAVTLRVPLKVDYHYGSTWYDAK
In the case of B3, the kcat [4, 5] is reported as 73 ± 16 s⁻¹ and the kcat [4, 6] is reported as 43 ± 7 s⁻¹.
